Laboratory results taken from PMC9123286 (The Journal of Cell Biology, 2022).

T1: Get3 D57E-TEV-GFP (S. cerevisiae, UniProt Q12154 1-354, D57E)
T1 construct: Get3, cytosolic ATPase of the GET pathway, S. cerevisiae; ATPase-impaired client trap variant D57E; Captured on anti-GFP beads and eluted by TEV cleavage; the oligomeric state in the lysate was not measured; also called Get3 DE; Get3 D57E (DE); source: yeast (BY4741 background), ectopically expressed, in lysate made without detergent; not shown: TEV site-GFP, C-terminal, kept
T1 sequence (looked up): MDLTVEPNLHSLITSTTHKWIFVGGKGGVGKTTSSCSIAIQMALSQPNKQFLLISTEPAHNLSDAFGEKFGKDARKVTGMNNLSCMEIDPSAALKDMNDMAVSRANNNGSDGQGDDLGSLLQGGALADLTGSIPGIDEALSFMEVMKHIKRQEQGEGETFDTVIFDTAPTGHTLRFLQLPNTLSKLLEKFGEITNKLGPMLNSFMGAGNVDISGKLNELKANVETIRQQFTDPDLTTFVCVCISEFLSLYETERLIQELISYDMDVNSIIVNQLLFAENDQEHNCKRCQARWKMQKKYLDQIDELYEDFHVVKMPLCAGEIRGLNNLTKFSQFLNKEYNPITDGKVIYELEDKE

B1: N-terminally HA-tagged Erg1 (full length) (enzyme, S. cerevisiae, UniProt P32476 1-496, looked up)
chain: MSAVNVAPELINADNTITYDAIVIGAGVIGPCVATGLARKGKKVLIVERDWAMPDRIVGELMQPGGVRALRSLGMIQSINNIEAYPVTGYTVFFNGEQVDIPYPYKADIPKVEKLKDLVKDGNDKVLEDSTIHIKDYEDDERERGVAFVHGRFLNNLRNITAQEPNVTRVQGNCIEILKDEKNEVVGAKVDIDGRGKVEFKAHLTFICDGIFSRFRKELHPDHVPTVGSSFVGMSLFNAKNPAPMHGHVILGSDHMPILVYQISPEETRILCAYNSPKVPADIKSWMIKDVQPFIPKSLRPSFDEAVSQGKFRAMPNSYLPARQNDVTGMCVIGDALNMRHPLTGGGMTVGLHDVVLLIKKIGDLDFSDREKVLDELLDYHFERKSYDSVINVLSVALYSLFAADSDNLKALQKGCFKYFQRGGDCVNKPVEFLSGVLPKPLQLTRVFFAVAFYTIYLNMEERGFLGLPMALLEGIMILITAIRVFTPFLFGELIG
notes: Erg1, squalene monooxygenase, S. cerevisiae; also called HA–Erg1; source: yeast, expressed from the endogenous ERG1 promoter (genomic) or ectopically in Δget3 cells, in lysate; not shown: HA, N-terminal, kept

Key:
[1] = biological target: T1, Get3 D57E-TEV-GFP; assay: co-IP; lysates from Δget3 cells ectopically expressing Get3 DE-TEV-GFP and HA-tagged Erg1 full length, ΔC, Δα1 or Δα2; anti-GFP MicroBeads, no detergent, TEV elution; immunoblot, signal normalised to Get3 in the eluate and to the input
[2] = biological target: T1, Get3 D57E-TEV-GFP; assay: co-IP; lysates from cells expressing HA–Erg1 (endogenous promoter) and Get3 DE–TEV–GFP or Get3 DE FIDD–TEV–GFP; anti-GFP MicroBeads, no detergent, TEV elution; immunoblot, signal normalised to Get3 in the eluate and to the input; details: partners not purified

Row | Molecule | percent reduction of Get3 binding against full-length HA–Erg1 [1] | fold enrichment against Get3 DE FIDD [2]
1 | N-terminally HA-tagged Erg1 lacking the second predicted helix of the C-terminal hairpin (Δα2) (from UniProt P32476 1-496) (enzyme) | 95% | 
2 | B1 |  | 5 fold
